# Results taken from US6262024.
# Target: N-methyl-D-aspartate (NMDA) receptor (rat)
substance,measurement,value
neuron regulatory factor (NRF) from rat,anterior thalamic neuron survival over controls,700%
